# Patent US20150203577A1 (Chugai, published 2015)
# T1: mouse FcγRIII extracellular domain, C-terminally His-tagged (mouse, UniProt P08508 31-215)
# T1 construct: the whole entry is named; also called mFcγRIII; mFcgRIII
# T1 chain: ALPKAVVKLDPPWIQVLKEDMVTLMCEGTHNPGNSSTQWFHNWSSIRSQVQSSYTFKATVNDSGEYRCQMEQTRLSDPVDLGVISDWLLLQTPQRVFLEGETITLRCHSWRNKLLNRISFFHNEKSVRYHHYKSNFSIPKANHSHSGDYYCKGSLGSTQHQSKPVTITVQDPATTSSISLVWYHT
# T2: mouse FcγRII extracellular domain, C-terminally His-tagged (mouse, UniProt P08101 30-210)
# T2 construct: the whole entry is named; also called mFcγRII; mFcgRII
# T2 sequence: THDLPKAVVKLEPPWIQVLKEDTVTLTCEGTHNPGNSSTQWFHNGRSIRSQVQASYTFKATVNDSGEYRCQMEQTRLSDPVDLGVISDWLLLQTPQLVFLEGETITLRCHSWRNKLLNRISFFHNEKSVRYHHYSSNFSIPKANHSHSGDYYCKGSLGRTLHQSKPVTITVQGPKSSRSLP
# Assays:
# [1] = biological target: T1, mouse FcγRIII extracellular domain, …; experiment: SPR Biacore T200, KD ratio
# Protocol: (§1) Each altered antibody was analyzed for its interaction with each Fcγ receptor prepared above using Biacore T100 (GE Healthcare Japan Corp.), Biacore T200 (GE Healthcare Japan Corp.), Biacore A100, or Biacore 4000. The running buffer used was HBS-EP+ (GE Healthcare Japan Corp.). The assay temperature was set to 25° C. The sensor chips used were chips prepared by immobilizing Protein L (ACTIGEN or BioVision) onto Series S Sensor Chip CM5 (GE Healthcare Japan Corp.) or Series S Sensor Chip CM4 (GE Healthcare Japan Corp.) by the amine coupling method.
# (§2) In order to calculate the KD value of each altered antibody for FcγR, kinetic analysis was conducted according to the following method: first, the antibody of interest was captured onto any of these chips and allowed to interact with mFcγR diluted with a running buffer. For the obtained sensorgram, the assay results were globally fit into the 1:1 Langmuir binding model using Biacore Evaluation Software to calculate an association rate constant ka (L/mol/s) and a dissociation rate constant kd (1/s). From these values, the dissociation constant KD (mol/L) was calculated.
# [2] = biological target: T2, mouse FcγRII extracellular domain, …; experiment: SPR Biacore T200, KD ratio
# Protocol: as §1, §2
Binder,relative mFcγRIII-binding activity (mIgG1 = 1) [1] [fold],relative mFcγRII-binding activity (mIgG1 = 1) [2] [fold]
"H237-MB636/MRAL-k0 (antibody, mouse IgG1, kappa, copies: 2 + 2) heavy: QVQLQESGPGLVKPSETLSLTCAVSGHSISHDHAWSWVRQPPGEGLEWIGFISYSGITNYNPSLQGRVTISRDNSKNTLYLQMNSLRAEDTAVYYCARSLARTTAMDYWGEGTLVTVSSAKTTPPSVYPLAPGSAAQTNSMVTLGCLVKGYFPEPVTVTWNSGSLSSGVHTFPAVLQSDLYTLSSSVTVPSSTWPSETVTCNVAHPASSTKVDKKIVPRDCGCKPCICEVYEVENVFIFPPKPKDVLTITLTPKVTCVVVDISKDDPEVQFSWFVDDVEVHTAQTQPREEQFNSTFRSVSELPIMHQDWLNGKEFKCRVNSAAFPAPIEKTISKTKGRPKAPQVYTIPPPKEQMAKDKVSLTCMITDFFPEDITVEWQWNGQPAENYKNTQPIMDTDGSYFVYSKLNVQKSNWEAGNTFTCSVLHEGLHNHHTEKSLSHSPGK light: not shown",0.14,4.41
"H237-MB638/MRAL-k0 (antibody, mouse IgG1, kappa, copies: 2 + 2) heavy: QVQLQESGPGLVKPSETLSLTCAVSGHSISHDHAWSWVRQPPGEGLEWIGFISYSGITNYNPSLQGRVTISRDNSKNTLYLQMNSLRAEDTAVYYCARSLARTTAMDYWGEGTLVTVSSAKTTPPSVYPLAPGSAAQTNSMVTLGCLVKGYFPEPVTVTWNSGSLSSGVHTFPAVLQSDLYTLSSSVTVPSSTWPSETVTCNVAHPASSTKVDKKIVPRDCGCKPCICIPAEVENVFIFPPKPKDVLTITLTPKVTCVVVDISKDDPEVQFSWFVDDVEVHTAQTQPREEQFNSTFRSVSELPIMHQDWLNGKEFKCRVNSAAFPAPIEKTISKTKGRPKAPQVYTIPPPKEQMAKDKVSLTCMITDFFPEDITVEWQWNGQPAENYKNTQPIMDTDGSYFVYSKLNVQKSNWEAGNTFTCSVLHEGLHNHHTEKSLSHSPGK light: not shown",0.08,0.75
"H237-MB637/MRAL-k0 (antibody, mouse IgG1, kappa, copies: 2 + 2) heavy: QVQLQESGPGLVKPSETLSLTCAVSGHSISHDHAWSWVRQPPGEGLEWIGFISYSGITNYNPSLQGRVTISRDNSKNTLYLQMNSLRAEDTAVYYCARSLARTTAMDYWGEGTLVTVSSAKTTPPSVYPLAPGSAAQTNSMVTLGCLVKGYFPEPVTVTWNSGSLSSGVHTFPAVLQSDLYTLSSSVTVPSSTWPSETVTCNVAHPASSTKVDKKIVPRDCGCKPCICEPAEVENVFIFPPKPKDVLTITLTPKVTCVVVDISKDDPEVQFSWFVDDVEVHTAQTQPREEQFNSTFRSVSELPIMHQDWLNGKEFKCRVNSAAFPAPIEKTISKTKGRPKAPQVYTIPPPKEQMAKDKVSLTCMITDFFPEDITVEWQWNGQPAENYKNTQPIMDTDGSYFVYSKLNVQKSNWEAGNTFTCSVLHEGLHNHHTEKSLSHSPGK light: not shown",0.15,2.6
"H237-MB644/MRAL-k0 (antibody, mouse IgG1, kappa, copies: 2 + 2) heavy: QVQLQESGPGLVKPSETLSLTCAVSGHSISHDHAWSWVRQPPGEGLEWIGFISYSGITNYNPSLQGRVTISRDNSKNTLYLQMNSLRAEDTAVYYCARSLARTTAMDYWGEGTLVTVSSAKTTPPSVYPLAPGSAAQTNSMVTLGCLVKGYFPEPVTVTWNSGSLSSGVHTFPAVLQSDLYTLSSSVTVPSSTWPSETVTCNVAHPASSTKVDKKIVPRDCGCKPCICETYEVEYVFIFPPKPKDVLTITLTPKVTCVVVDISKDDPEVQFSWFVDDVEVHTAQTQPREEQFNSTFRSVSELPIMHQDWLNGKEFKCRVNSAAFPAPIEKTISKTKGRPKAPQVYTIPPPKEQMAKDKVSLTCMITDFFPEDITVEWQWNGQPAENYKNTQPIMDTDGSYFVYSKLNVQKSNWEAGNTFTCSVLHEGLHNHHTEKSLSHSPGK light: not shown",0.3,4.55
"H237-MB640/MRAL-k0 (antibody, mouse IgG1, kappa, copies: 2 + 2) heavy: QVQLQESGPGLVKPSETLSLTCAVSGHSISHDHAWSWVRQPPGEGLEWIGFISYSGITNYNPSLQGRVTISRDNSKNTLYLQMNSLRAEDTAVYYCARSLARTTAMDYWGEGTLVTVSSAKTTPPSVYPLAPGSAAQTNSMVTLGCLVKGYFPEPVTVTWNSGSLSSGVHTFPAVLQSDLYTLSSSVTVPSSTWPSETVTCNVAHPASSTKVDKKIVPRDCGCKPCICQPNEVENVFIFPPKPKDVLTITLTPKVTCVVVDISKDDPEVQFSWFVDDVEVHTAQTQPREEQFNSTFRSVSELPIMHQDWLNGKEFKCRVNSAAFPAPIEKTISKTKGRPKAPQVYTIPPPKEQMAKDKVSLTCMITDFFPEDITVEWQWNGQPAENYKNTQPIMDTDGSYFVYSKLNVQKSNWEAGNTFTCSVLHEGLHNHHTEKSLSHSPGK light: not shown",0.18,1.06
"H237-MB642/MRAL-k0 (antibody, mouse IgG1, kappa, copies: 2 + 2) heavy: QVQLQESGPGLVKPSETLSLTCAVSGHSISHDHAWSWVRQPPGEGLEWIGFISYSGITNYNPSLQGRVTISRDNSKNTLYLQMNSLRAEDTAVYYCARSLARTTAMDYWGEGTLVTVSSAKTTPPSVYPLAPGSAAQTNSMVTLGCLVKGYFPEPVTVTWNSGSLSSGVHTFPAVLQSDLYTLSSSVTVPSSTWPSETVTCNVAHPASSTKVDKKIVPRDCGCKPCICEDYEVEYVFIFPPKPKDVLTITLTPKVTCVVVDISKDDPEVQFSWFVDDVEVHTAQTQPREEQFNSTFRSVSELPIMHQDWLNGKEFKCRVNSAAFPAPIEKTISKTKGRPKAPQVYTIPPPKEQMAKDKVSLTCMITDFFPEDITVEWQWNGQPAENYKNTQPIMDTDGSYFVYSKLNVQKSNWEAGNTFTCSVLHEGLHNHHTEKSLSHSPGK light: not shown",0.08,1.87
"H237-MB645/MRAL-k0 (antibody, mouse IgG1, kappa, copies: 2 + 2) heavy: QVQLQESGPGLVKPSETLSLTCAVSGHSISHDHAWSWVRQPPGEGLEWIGFISYSGITNYNPSLQGRVTISRDNSKNTLYLQMNSLRAEDTAVYYCARSLARTTAMDYWGEGTLVTVSSAKTTPPSVYPLAPGSAAQTNSMVTLGCLVKGYFPEPVTVTWNSGSLSSGVHTFPAVLQSDLYTLSSSVTVPSSTWPSETVTCNVAHPASSTKVDKKIVPRDCGCKPCICEVYEVEYVFIFPPKPKDVLTITLTPKVTCVVVDISKDDPEVQFSWFVDDVEVHTAQTQPREEQFNSTFRSVSELPIMHQDWLNGKEFKCRVNSAAFPAPIEKTISKTKGRPKAPQVYTIPPPKEQMAKDKVSLTCMITDFFPEDITVEWQWNGQPAENYKNTQPIMDTDGSYFVYSKLNVQKSNWEAGNTFTCSVLHEGLHNHHTEKSLSHSPGK light: not shown",0.2,1.17
"H237-MB643/MRAL-k0 (antibody, mouse IgG1, kappa, copies: 2 + 2) heavy: QVQLQESGPGLVKPSETLSLTCAVSGHSISHDHAWSWVRQPPGEGLEWIGFISYSGITNYNPSLQGRVTISRDNSKNTLYLQMNSLRAEDTAVYYCARSLARTTAMDYWGEGTLVTVSSAKTTPPSVYPLAPGSAAQTNSMVTLGCLVKGYFPEPVTVTWNSGSLSSGVHTFPAVLQSDLYTLSSSVTVPSSTWPSETVTCNVAHPASSTKVDKKIVPRDCGCKPCICENYEVEYVFIFPPKPKDVLTITLTPKVTCVVVDISKDDPEVQFSWFVDDVEVHTAQTQPREEQFNSTFRSVSELPIMHQDWLNGKEFKCRVNSAAFPAPIEKTISKTKGRPKAPQVYTIPPPKEQMAKDKVSLTCMITDFFPEDITVEWQWNGQPAENYKNTQPIMDTDGSYFVYSKLNVQKSNWEAGNTFTCSVLHEGLHNHHTEKSLSHSPGK light: not shown",0.14,1.66
"H237-MB641/MRAL-k0 (antibody, mouse IgG1, kappa, copies: 2 + 2) heavy: QVQLQESGPGLVKPSETLSLTCAVSGHSISHDHAWSWVRQPPGEGLEWIGFISYSGITNYNPSLQGRVTISRDNSKNTLYLQMNSLRAEDTAVYYCARSLARTTAMDYWGEGTLVTVSSAKTTPPSVYPLAPGSAAQTNSMVTLGCLVKGYFPEPVTVTWNSGSLSSGVHTFPAVLQSDLYTLSSSVTVPSSTWPSETVTCNVAHPASSTKVDKKIVPRDCGCKPCICEAYEVEYVFIFPPKPKDVLTITLTPKVTCVVVDISKDDPEVQFSWFVDDVEVHTAQTQPREEQFNSTFRSVSELPIMHQDWLNGKEFKCRVNSAAFPAPIEKTISKTKGRPKAPQVYTIPPPKEQMAKDKVSLTCMITDFFPEDITVEWQWNGQPAENYKNTQPIMDTDGSYFVYSKLNVQKSNWEAGNTFTCSVLHEGLHNHHTEKSLSHSPGK light: not shown",0.13,1.47
"H237-MB639/MRAL-k0 (antibody, mouse IgG1, kappa, copies: 2 + 2) heavy: QVQLQESGPGLVKPSETLSLTCAVSGHSISHDHAWSWVRQPPGEGLEWIGFISYSGITNYNPSLQGRVTISRDNSKNTLYLQMNSLRAEDTAVYYCARSLARTTAMDYWGEGTLVTVSSAKTTPPSVYPLAPGSAAQTNSMVTLGCLVKGYFPEPVTVTWNSGSLSSGVHTFPAVLQSDLYTLSSSVTVPSSTWPSETVTCNVAHPASSTKVDKKIVPRDCGCKPCICEPNEVENVFIFPPKPKDVLTITLTPKVTCVVVDISKDDPEVQFSWFVDDVEVHTAQTQPREEQFNSTFRSVSELPIMHQDWLNGKEFKCRVNSAAFPAPIEKTISKTKGRPKAPQVYTIPPPKEQMAKDKVSLTCMITDFFPEDITVEWQWNGQPAENYKNTQPIMDTDGSYFVYSKLNVQKSNWEAGNTFTCSVLHEGLHNHHTEKSLSHSPGK light: not shown",0.38,4.91
